# Starred links: 1 amine or outer side, 2 acyl side, 3 side chain; linkers in the order of their positions; H or OH if unused. Non-standard residues stand in square brackets, D forms with d. Groups on a side chain read outwards from the residue. Primed or numbered codes have the meaning given here. No end group written: not given here. *: point of attachment. γGlu = O=C(O)[C@H](CCC(=O)[*:2])N[*:1]; αMeF = C[C@](N)(Cc1ccccc1)C(=O)O; αMeK = C[C@](N)(CCCCN)C(=O)O; Lauroyl = CCCCCCCCCCCC(=O)*; αMeS = C[C@](N)(CO)C(=O)O; PEG2′ = not defined here; Aib = CC(C)(N)C(=O)O
# T1: glucose-dependent insulinotropic peptide (gastric inhibitory polypeptide) receptor (GIPR), primary cAMP assay … (human, UniProt P48546 22-466)
# T1 sequence (looked up): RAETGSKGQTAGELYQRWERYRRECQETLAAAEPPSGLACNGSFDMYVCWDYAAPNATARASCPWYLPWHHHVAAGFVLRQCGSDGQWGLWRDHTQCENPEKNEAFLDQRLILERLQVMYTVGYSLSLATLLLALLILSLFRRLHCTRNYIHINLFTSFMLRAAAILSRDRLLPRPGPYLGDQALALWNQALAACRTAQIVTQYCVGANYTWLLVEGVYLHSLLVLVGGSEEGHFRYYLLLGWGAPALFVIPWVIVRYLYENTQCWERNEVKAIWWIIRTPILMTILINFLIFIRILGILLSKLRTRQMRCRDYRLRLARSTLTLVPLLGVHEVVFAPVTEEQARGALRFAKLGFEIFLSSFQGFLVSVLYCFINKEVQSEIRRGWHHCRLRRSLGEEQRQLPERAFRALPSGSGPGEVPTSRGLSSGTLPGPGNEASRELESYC
# B1: SEQ ID NO: 451 (peptide)
# peptide: H[Aib]EGS[αMeF]TSDV[αMeS]SYK([PEG2′-PEG2′-γGlu-Lauroyl])EK([PEG2′-PEG2′-γGlu-Lauroyl])EAA[αMeK]EFIK([PEG2′-PEG2′-γGlu-Lauroyl])FVVEGG-NH2
# B2: SEQ ID NO: 468 (peptide)
# peptide: H[Aib]EGS[αMeF]TSDV[αMeS]SYK([PEG2′-PEG2′-γGlu-Lauroyl])EGK([PEG2′-PEG2′-γGlu-Lauroyl])AA[αMeK]EFIAK([PEG2′-PEG2′-γGlu-Lauroyl])VVEGG-NH2
# B3: SEQ ID NO: 471 (peptide)
# peptide: H[Aib]EGS[αMeF]TSDK([PEG2′-PEG2′-γGlu-Lauroyl])SSYLEK([PEG2′-PEG2′-γGlu-Lauroyl])EAA[αMeK]EFIAFK([PEG2′-PEG2′-γGlu-Lauroyl])VEGG-NH2
# B4: SEQ ID NO: 453 (peptide)
# peptide: H[Aib]EGS[αMeF]TSDV[αMeS]SYK([PEG2′-PEG2′-γGlu-Lauroyl])EGEK([PEG2′-PEG2′-γGlu-Lauroyl])A[αMeK]EFIK([PEG2′-PEG2′-γGlu-Lauroyl])FVVEGG-NH2
# B5: SEQ ID NO: 461 (peptide)
# peptide: H[Aib]EGS[αMeF]TSDVSK([PEG2′-PEG2′-γGlu-Lauroyl])YLEGEK([PEG2′-PEG2′-γGlu-Lauroyl])A[αMeK]EFIAK([PEG2′-PEG2′-γGlu-Lauroyl])VVEGG-NH2
# B6: SEQ ID NO: 460 (peptide)
# peptide: H[Aib]EGS[αMeF]TSDVSK([PEG2′-PEG2′-γGlu-Lauroyl])YLEGK([PEG2′-PEG2′-γGlu-Lauroyl])AA[αMeK]EFIAK([PEG2′-PEG2′-γGlu-Lauroyl])VVEGG-NH2
# B7: SEQ ID NO: 452 (peptide)
# peptide: H[Aib]EGS[αMeF]TSDV[αMeS]SYK([PEG2′-PEG2′-γGlu-Lauroyl])EGK([PEG2′-PEG2′-γGlu-Lauroyl])AA[αMeK]EFIK([PEG2′-PEG2′-γGlu-Lauroyl])FVVEGG-NH2
# B8: SEQ ID NO: 457 (peptide)
# peptide: H[Aib]EGS[αMeF]TSDK([PEG2′-PEG2′-γGlu-Lauroyl])SSYLEGEK([PEG2′-PEG2′-γGlu-Lauroyl])A[αMeK]EFIAK([PEG2′-PEG2′-γGlu-Lauroyl])VVEGG-NH2
# B9: SEQ ID NO: 459 (peptide)
# peptide: H[Aib]EGS[αMeF]TSDVSK([PEG2′-PEG2′-γGlu-Lauroyl])YLEK([PEG2′-PEG2′-γGlu-Lauroyl])EAA[αMeK]EFIAK([PEG2′-PEG2′-γGlu-Lauroyl])VVEGG-NH2
# Molecular target: GLP-1 receptor (GLP-1R), primary cAMP assay cell line (human, UniProt P43220 24-463)
# Experiment: cell-based or functional assay
"cAMP Primary assay EC50, Mean pM GLP-1R [pM]","cAMP Primary assay EC50, n1 [nM]","cAMP Primary assay EC50, n2 [nM]",Binder
93.4,0.0288,0.158,B1
73.5,0.0624,0.0845,B2
374,0.277,0.47,B3
114,0.0629,0.165,B4
110,0.0745,0.145,B5
78.1,0.0674,0.0888,B6
80.9,0.0857,0.0761,B7
142,0.127,0.156,B8
100,0.0895,0.111,B9

# Molecular target: glucagon receptor (GCGR), primary cAMP assay cell line (human, UniProt P47871 26-477)
# Sequence (P47871 26-477): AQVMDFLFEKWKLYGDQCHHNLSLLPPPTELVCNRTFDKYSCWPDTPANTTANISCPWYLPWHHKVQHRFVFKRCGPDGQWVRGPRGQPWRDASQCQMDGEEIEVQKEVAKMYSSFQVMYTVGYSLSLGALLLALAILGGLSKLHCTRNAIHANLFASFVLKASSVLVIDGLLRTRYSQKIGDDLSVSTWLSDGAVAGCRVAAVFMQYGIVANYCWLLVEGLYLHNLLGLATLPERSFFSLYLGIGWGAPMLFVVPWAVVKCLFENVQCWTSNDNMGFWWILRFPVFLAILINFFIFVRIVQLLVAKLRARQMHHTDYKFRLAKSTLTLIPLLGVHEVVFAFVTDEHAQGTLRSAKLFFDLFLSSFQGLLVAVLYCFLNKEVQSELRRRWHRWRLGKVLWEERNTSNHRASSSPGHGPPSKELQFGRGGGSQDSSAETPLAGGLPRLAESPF
# Experiment: cell-based or functional assay
"cAMP Primary assay EC50, n1 [nM]","cAMP Primary assay EC50, n2 [nM]",Binder
19.7,19.5,B1
20,20,B2
19.6,19.6,B3
19.5,19.5,B4
19.8,19.8,B5
20,20,B6
19.5,19.7,B7
19.8,19.8,B8
19.7,19.7,B9

# Molecular target: T1, glucose-dependent insulinotropic …
# Experiment: cell-based or functional assay
"cAMP Primary assay EC50, n1 [nM]","cAMP Primary assay EC50, n2 [nM]",Binder
19.7,19.5,B1
20,20,B2
19.6,19.6,B3
19.5,19.5,B4
19.8,19.8,B5
20,20,B6
19.5,19.7,B7
19.8,19.8,B8
19.7,19.7,B9

# Reference: patent publication US20200079833A1 (AstraZeneca / MedImmune, published 2020)
